From patent US20200239597A1, “AN ANTI-APOPTOTIC FUNCTION OF PKM2 AND INTRACELLULARLY EXPRESSED SCFV ANTIBODIES” (La Jolla Institute for Allergy and Immunology, priority 2017, published 2020)

How the values were obtained:
[1] = tested on: mouse embryonic fibroblasts (MEFs); test: BimS-induced death in MEFs (WT, PKM2-deficient, reconstituted), surviving cells counted; assay type: cell-based
Method: Wild type (WT) mouse embryonic fibroblasts (MEFs), PKM2-deficient MEFs, or PKM2-deficient MEFs reconstituted with WT or mutant PKIM2 cDNA, were infected or not with IB5, then later transfected with BimS expression plasmid. Surviving cells were counted 48 h afterwards.
(§1) Cell viability was measured with a Countess™ Automated Cell Counter (Invitrogen) using trypan blue. For the clonogenic survival assay, 293T or MEFs cells were seeded in 6-well plates at 1×10^5 cells/well in a 2-ml volume, transfected with BimS cDNA and incubated for 24 h. Afterwards, the medium was replaced and the cells cultured for 3-4 days. Thereafter, the plates were rinsed with PBS and fixed and stained with a solution containing crystal violet (0.5% w/v) and glutaraldehyde (6% v/v) as described (Franken et al., 2006).

Mfn1, Mfn2 = test: Immunoblot of Mfn1 and Mfn2 protein levels in reconstituted MEFs; assay type: cell-based, mouse
MDA-MB231-LM2 = test: Clonogenic rescue from BimS-induced death, MDA-MB231-LM2; assay type: cell-based; conditions: lung metastatic derivative MDA-MB231-LM2
Method: Control or IB5-expressing cells were transfected with BimS cDNA. The plates were fixed and stained with crystal violet after 12 days and the total areas of colonies were measured. Mean, SD and P values were calculated from 3 individual plates.

WT PKM2 = target: T1, WT PKM2 (Homo sapiens, UniProt P14618); test: Blue native gel electrophoresis of recombinant proteins, WT PKM2; assay type: binding
T1 construct: His (N); made in house; host or cells: Escherichia coli BL21(DE3)
Method: (§2) Left: A monovalent form of scFv 5, produced in E. coli, induced tetramer formation in WT PKM2 along with a bandshift whose magnitude was dependent on the input amount of scFv 5. […] Reaction volume was 20 μl.
Because glucose metabolism can influence cell survival (Fulda and Debatin, 2007; Moley and Mueckler, 2000; Munoz-Pinedo et al., 2012), The present inventors asked whether IB5 could rescue cells simply through stimulating PKM2's glycolytic activity. First, to analyze the antibody's interaction with PKM2, the present inventors produced monovalent scFv 5 and PIKM2 as recombinant proteins in E. coli and analyzed mixtures of these proteins, by blue native gel electrophoresis (FIG. 3A).

Bcl-2 family proteins = test: Immunoblots of Bcl-2 family proteins; assay type: cell-based, human; conditions: alone or in combination; TEPP-46 27 μM
Method: Levels of several Bcl-2 family proteins were unchanged following IB5 expression or incubation with TEPP-46, or both. Cell lysates from 293T cells infected with and without IB5 and incubated with and without TEPP-46 (27 μM) were separated on SDS-12% polyacrylamide gels. Bcl-2 family proteins were detected by immunoblotting. The bands were quantified using ImageJ and normalized to the control cell lysate on the leftmost lane.
293T cells were washed with PBS and lysed with PBS containing 1% NP-40. Protein concentration was determined using Pierce™ BCA reagent (ThermoFisher; 23221, 23224). 35 μg protein was loaded in each lane of 12% SDS-PAGE gels. Proteins were transferred to nitrocellulose membrane and immunoblotted with the following primary antibodies: anti-Bax antibody (Santa Cruz N20), anti-Bak antibody (Cell Signaling 3814), anti-Bid antibody (R&D Systems AF860), anti-Bim antibody (Sigma B7929), anti-Puma antibody (Cell Signaling 4976), anti-Bcl-2 antibody (Abcam 32124), anti-Bcl-xL antibody (Cell Signaling 2764) and anti-Mcl-1 (Santa Cruz S19) at 1:1000 dilution. The secondary anti-rabbit and mouse antibodies, conjugated with HRP, were obtained from Santa Cruz and were used at 1:2000 dilution. The luminescence signal was detected using ECL reagent (ThermoFisher 32106).

PKM2 (K422R) = target: T2, PKM2 (K422R) (Homo sapiens, UniProt P14618, K422R); test: Blue native gel electrophoresis, PKM2 (K422R); assay type: binding; conditions: with or without FBP
T2 construct: His; made in house; host or cells: Escherichia coli BL21(DE3) (stated generally for WT and mutant PKM2)
Method: as §2
To test the possibility that PKM2 tetramerization is important for the cell survival activity, the present inventors reconstituted PKM2-deficient MEFs with the stably tetrameric PKIM2 (K422R) mutant. […] Blue native gel electrophoresis confirmed the spontaneous formation of K422R tetramers, in the absence of FBP (FIG. 4A). […] The present inventors conclude that IB5 can bind to PKIM2 (K422R), at least to the active R-state form. Interaction of IB5 may further stabilize the active R-state conformation of PKM2, especially in the presence of the allosteric activators FBP or TEPP-46.

[2] = tested on: endogenous PKM2, Bim EL and L isoforms; test: Expression of endogenous PKM2 and Bim isoforms in 293T cells; assay type: cell-based, human
PKM2 (K270M) = target: T3, PKM2 (K270M) (Homo sapiens, UniProt P14618, K270M); test: Blue native gel electrophoresis, PKM2 (K270M); assay type: binding; conditions: not shown
T3 construct: His (N); made in house; host or cells: Escherichia coli BL21(DE3)
Excerpt: To begin to define the aspects of PKM2 function required for the IB5-induced anti-apoptotic effect, the present inventors reconstituted PKM2-null MEFs with WT or mutant forms of PKM2. The present inventors first analyzed the K270M mutation, reported to be catalytically dead (Bollenbach et al., 1999; Dombrauckas et al., 2005; Luo et al., 2011).

293T cells = test: Clonogenic survival assay after BimS transfection, 293T cells; assay type: cell-based, human; conditions: 293T cells
Method: Control 293T or IB5-expressing cells were incubated with or without 27 µg/ml TEPP-46 for 3 h, then transfected with BimS cDNA in a further 24-h incubation also including TEPP-46 or vehicle. The plates were fixed and stained with crystal violet after 1 week. The total area of colonies (a measure of the total mass of proliferating cells) formed in each well from were quantified using ImageJ software; mean±SEM are shown from 3 independent experiments.
as §1

PKM1 = PKM1 (Homo sapiens, UniProt P14618); test: Blue native gel electrophoresis of recombinant proteins, PKM1; assay type: binding
PKM1, sequence (P14618 1-531 isoform P14618-2, species assumed): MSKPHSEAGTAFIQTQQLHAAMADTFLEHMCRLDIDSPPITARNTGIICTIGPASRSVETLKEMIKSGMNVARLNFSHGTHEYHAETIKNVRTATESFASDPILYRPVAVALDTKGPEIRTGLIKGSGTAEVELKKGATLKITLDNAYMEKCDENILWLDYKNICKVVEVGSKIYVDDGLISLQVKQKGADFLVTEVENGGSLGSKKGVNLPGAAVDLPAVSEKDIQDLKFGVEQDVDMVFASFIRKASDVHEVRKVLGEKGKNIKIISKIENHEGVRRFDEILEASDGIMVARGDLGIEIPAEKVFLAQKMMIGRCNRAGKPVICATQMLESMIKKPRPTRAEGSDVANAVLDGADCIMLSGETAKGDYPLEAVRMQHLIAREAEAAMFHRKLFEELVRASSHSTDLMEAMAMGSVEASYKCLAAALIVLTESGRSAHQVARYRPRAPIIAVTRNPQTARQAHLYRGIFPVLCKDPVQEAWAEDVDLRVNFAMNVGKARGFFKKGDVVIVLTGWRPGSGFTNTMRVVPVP

T1 sequence (P14618 whole entry): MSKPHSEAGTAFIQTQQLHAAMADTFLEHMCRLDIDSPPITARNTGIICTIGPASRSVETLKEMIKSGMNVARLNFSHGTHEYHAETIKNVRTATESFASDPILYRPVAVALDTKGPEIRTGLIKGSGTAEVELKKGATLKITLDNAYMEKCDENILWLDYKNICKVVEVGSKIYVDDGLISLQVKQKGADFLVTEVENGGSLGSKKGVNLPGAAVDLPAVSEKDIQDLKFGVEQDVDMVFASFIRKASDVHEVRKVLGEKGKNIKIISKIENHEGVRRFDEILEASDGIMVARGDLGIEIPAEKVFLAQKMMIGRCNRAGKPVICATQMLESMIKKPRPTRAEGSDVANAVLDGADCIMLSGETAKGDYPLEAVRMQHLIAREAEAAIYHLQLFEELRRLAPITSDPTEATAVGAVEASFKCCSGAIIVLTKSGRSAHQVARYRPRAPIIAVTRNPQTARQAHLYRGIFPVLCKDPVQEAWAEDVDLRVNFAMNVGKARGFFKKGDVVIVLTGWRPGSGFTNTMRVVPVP
T3 sequence (P14618 whole entry K270M): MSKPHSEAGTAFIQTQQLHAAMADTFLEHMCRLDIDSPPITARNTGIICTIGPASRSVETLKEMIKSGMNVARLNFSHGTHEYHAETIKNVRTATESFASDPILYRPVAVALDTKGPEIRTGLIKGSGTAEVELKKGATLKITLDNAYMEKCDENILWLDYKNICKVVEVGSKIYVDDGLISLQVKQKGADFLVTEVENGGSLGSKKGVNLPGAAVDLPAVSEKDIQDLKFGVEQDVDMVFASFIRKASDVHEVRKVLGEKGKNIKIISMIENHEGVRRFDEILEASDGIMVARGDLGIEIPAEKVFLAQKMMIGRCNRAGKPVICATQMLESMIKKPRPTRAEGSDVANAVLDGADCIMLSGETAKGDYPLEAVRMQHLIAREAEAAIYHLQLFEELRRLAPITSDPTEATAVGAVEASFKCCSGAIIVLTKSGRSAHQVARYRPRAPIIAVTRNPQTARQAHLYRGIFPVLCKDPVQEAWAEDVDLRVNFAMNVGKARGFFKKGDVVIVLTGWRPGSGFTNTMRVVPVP
T2 sequence (P14618 whole entry K422R): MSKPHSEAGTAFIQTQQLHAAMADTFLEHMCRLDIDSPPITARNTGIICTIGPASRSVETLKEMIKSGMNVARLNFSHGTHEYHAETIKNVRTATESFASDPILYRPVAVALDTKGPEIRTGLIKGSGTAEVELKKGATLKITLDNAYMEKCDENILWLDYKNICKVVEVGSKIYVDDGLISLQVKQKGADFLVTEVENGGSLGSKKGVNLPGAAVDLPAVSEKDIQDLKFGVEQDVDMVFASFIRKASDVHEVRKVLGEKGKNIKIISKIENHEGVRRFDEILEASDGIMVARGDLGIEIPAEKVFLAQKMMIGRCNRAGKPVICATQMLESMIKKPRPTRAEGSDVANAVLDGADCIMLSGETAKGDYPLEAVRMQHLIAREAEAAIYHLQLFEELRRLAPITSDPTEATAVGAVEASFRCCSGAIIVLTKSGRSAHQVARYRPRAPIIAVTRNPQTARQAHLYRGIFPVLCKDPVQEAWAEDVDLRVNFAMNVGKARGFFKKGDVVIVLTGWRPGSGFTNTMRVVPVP

B1: IB5: intracellularly expressed single-chain antibody (scFv) specific for PKM2, SEQ ID NO: 2; also made as monovalent recombinant scFv in E. coli (protein)
scFv: MAQVQLVETGPGLVKPSETLSLRCTVSGGSFDNYYWNWIRQPPGKGLEYIGYVFPSTGATNYNPSLGSRVTISLDTSKNQFSLTLTSVTTADTAIYYCVRSGHDLWTGSTWFDPWGQWTTVTVSSGGGGSGGGGSGGGGSEIVLTQSPGTLSLSPGERATLSCRASQSVSSSYLAWYQQKPGQAPRLLIYGASSRATGIPDRFSGSGSGTDFTLTISRLEPEDIAVYYCQQRSNWPRTFGQGTKVEIKRGLGGLASVDYKDDDDK
modifications: artificial intrabody clone 5
notes: also made as monovalent recombinant scFv in E. coli
B1 was tested, and the “rescue from BimS-induced killing” value ([1]; PKM2-deficient MEFs) was “entirely abrogated”, the “cell rescue after reconstitution” value ([1]; PKM2-null MEFs reconstituted with PKM2 (K270M)) was “failed to support IB5-induced cell rescue” and the “cytoprotective ability after reconstitution” value ([1]; PKM2-null MEFs reconstituted with WT PKM2 cDNA) was “restored the cytoprotective ability of IB5”. For the same molecule, the “rescue from BimS-induced killing” value ([1]; WT MEFs) was “rescued a percentage of the WT cells”, the “numbers of viable cells” value ([1]; early-passage MEFs reconstituted with PKM2 (K422R)) was “further increased viability” and the “levels of Mfn1” value (Mfn1, Mfn2; cells expressing the K422R mutant) was “upregulated Mfn1 even further”. For the same molecule, the Mfn2 levels (Mfn1, Mfn2; reconstituted MEFs) was “left Mfn2 levels unchanged”, the “levels of Mfn1” value (Mfn1, Mfn2; reconstituted MEFs) was “substantially increased” and the “rescue from BimS-induced cell death” value (MDA-MB231-LM2) was “failed to rescue”. The “tetramer formation of WT PKM2” value (WT PKM2; blue native gel) was “strongly increased the tetrameric PIKMV2 species”, the “direct binding to PKM2” value (WT PKM2; in vitro experiments) was “bound directly to PKM2” and the “levels of Bax, Bak, Bid, Bim, Puma, Bcl-2, Bcl-xL and Mcl-1” value (Bcl-2 family proteins) was “failed to change the mitochondrial levels”. The “shift of the PKM2 (K422R) tetramer band” value (PKM2 (K422R)) was “shifted the tetramer band up only in the presence of allosteric activator FBP”, the “expression of endogenous Bim EL and L isoforms” value [2] was “no effect” and the “expression of endogenous PKM2” value [2] was “no effect”. The “stable tetramer formation of PKM2 (K270M)” value (PKM2 (K270M)) was “prevented the protein from forming stable tetramers”, the “clonogenic survival despite BimS expression” value (293T cells) was “produced clonogenic survival” and the “shift of electrophoretic mobility of recombinant PKM1” value (PKM1) was “failed to shift the electrophoretic mobility”.
